Drawing on patent US20250282833A1, this text covers sequence coverage by LC-MS/MS after Asp-N digestion and Sequence Coverage (%) by LC-MS/MS after trypsin digestion for two substances.

Experiment [1] has as its target Anc80 AAV capsid viral protein VP1.
Experiment [2] has as its target T1, AdV5 pIIIa (human adenovirus C serotype 5) (UniProt P12537).
T1 sequence: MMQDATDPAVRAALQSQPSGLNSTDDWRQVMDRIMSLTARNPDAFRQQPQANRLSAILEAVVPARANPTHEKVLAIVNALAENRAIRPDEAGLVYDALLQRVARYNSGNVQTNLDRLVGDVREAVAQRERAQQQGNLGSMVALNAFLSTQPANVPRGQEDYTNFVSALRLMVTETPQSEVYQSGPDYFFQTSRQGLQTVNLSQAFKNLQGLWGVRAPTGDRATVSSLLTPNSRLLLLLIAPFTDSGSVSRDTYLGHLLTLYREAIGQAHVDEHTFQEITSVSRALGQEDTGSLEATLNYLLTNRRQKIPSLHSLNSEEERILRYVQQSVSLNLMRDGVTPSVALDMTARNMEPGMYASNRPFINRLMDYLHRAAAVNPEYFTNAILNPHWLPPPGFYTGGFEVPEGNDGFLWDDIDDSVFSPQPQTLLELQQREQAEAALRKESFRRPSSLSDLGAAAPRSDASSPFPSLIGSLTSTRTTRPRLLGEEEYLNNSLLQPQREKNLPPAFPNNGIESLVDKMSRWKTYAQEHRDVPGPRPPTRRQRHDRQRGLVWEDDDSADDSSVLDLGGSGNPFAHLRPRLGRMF

The target in experiment [3] is AdV5 Fiber (human adenovirus C serotype 5) (UniProt P11818).
For experiment [4], the target named is AdV5 AVP (human adenovirus C serotype 5) (UniProt P03253).
Experiment [5] deals with AdV5 pVI (human adenovirus C serotype 5) (UniProt P24937).
The target in experiment [6] is T2, AdV5 pVII (human adenovirus C serotype 5) (UniProt P68951).
T2 sequence (chain, acetylation at S2 (100.0%)): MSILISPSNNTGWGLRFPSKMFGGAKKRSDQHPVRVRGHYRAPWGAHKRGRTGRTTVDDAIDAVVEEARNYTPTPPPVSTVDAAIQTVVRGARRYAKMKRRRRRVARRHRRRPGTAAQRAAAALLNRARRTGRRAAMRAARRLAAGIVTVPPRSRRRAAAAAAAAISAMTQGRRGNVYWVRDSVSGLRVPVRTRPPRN

In experiment [7] the target is T3, AdV5 pV (human adenovirus C serotype 5) (UniProt P24938).
T3 sequence: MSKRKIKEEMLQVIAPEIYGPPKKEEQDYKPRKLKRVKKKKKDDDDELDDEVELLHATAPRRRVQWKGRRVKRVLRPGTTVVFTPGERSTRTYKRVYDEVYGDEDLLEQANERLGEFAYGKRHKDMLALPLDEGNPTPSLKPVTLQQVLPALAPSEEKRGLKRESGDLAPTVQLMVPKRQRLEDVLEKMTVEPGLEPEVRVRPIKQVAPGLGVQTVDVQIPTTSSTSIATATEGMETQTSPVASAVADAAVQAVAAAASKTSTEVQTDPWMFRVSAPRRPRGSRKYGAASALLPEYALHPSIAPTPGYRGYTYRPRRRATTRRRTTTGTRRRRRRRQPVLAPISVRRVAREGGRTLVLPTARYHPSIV

Experiment [8] concerns the target T4, AdV5 pIVa2 (human adenovirus C serotype 5) (UniProt P03271).
T4 sequence: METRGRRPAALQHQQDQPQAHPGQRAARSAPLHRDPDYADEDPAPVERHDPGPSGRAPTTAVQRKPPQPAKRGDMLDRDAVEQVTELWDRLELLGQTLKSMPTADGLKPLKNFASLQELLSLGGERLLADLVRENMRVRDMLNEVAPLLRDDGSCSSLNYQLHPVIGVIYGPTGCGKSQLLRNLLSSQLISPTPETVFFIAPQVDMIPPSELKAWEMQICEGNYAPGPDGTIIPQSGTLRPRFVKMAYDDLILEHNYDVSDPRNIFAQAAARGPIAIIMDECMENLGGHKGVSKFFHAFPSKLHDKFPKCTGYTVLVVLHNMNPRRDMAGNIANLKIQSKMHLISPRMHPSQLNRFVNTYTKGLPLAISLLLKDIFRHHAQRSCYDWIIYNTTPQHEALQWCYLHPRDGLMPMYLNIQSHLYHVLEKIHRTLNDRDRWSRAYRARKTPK

The target of experiment [9] is T5, AdV5 pµ (human adenovirus C serotype 5) (UniProt Q2KS10).
T5 sequence: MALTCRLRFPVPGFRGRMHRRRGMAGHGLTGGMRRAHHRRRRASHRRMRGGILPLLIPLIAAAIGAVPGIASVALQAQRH

The target in experiment [10] is AdV5 Penton base (human adenovirus C serotype 5) (UniProt P12538).
Chain of AdV5 Penton base (human adenovirus C serotype 5) (P12538 whole entry): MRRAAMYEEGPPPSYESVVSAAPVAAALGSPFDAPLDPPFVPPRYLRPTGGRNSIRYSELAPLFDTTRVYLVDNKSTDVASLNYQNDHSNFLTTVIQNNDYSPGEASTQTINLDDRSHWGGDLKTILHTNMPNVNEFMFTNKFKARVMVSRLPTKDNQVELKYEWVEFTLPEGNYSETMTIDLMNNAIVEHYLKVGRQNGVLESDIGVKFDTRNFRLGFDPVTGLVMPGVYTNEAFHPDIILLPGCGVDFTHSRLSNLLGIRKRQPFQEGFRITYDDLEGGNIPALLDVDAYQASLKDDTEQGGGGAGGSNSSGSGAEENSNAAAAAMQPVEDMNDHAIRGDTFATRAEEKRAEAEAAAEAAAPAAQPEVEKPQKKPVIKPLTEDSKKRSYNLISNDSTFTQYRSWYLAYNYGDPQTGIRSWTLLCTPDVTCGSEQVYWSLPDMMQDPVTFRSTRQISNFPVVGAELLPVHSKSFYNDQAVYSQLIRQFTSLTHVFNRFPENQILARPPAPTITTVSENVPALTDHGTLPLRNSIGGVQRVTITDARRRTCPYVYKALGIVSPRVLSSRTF
For experiment [11], the target named is AdV5 pIX (human adenovirus C serotype 5) (UniProt P03281).
In experiment [12] the target is AdV5 pTP (human adenovirus C serotype 5) (UniProt P04499).
In experiment [13] the target is AdV5 pVIII (human adenovirus C serotype 5) (UniProt P24936).
Experiment [14] concerns the target AdV5 Hexon (human adenovirus C serotype 5) (UniProt P04133).

Chain of Sequencing grade trypsin (P00761 9-231 limits assumed): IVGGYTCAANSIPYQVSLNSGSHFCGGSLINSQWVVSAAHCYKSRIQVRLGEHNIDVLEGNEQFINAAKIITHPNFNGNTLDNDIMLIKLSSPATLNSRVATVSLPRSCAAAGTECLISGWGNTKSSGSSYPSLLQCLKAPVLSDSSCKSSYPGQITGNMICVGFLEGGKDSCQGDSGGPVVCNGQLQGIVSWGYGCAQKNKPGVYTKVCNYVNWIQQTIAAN

Take Asp-N protease (enzyme): in [1], the sequence coverage by LC-MS/MS after Asp-N digestion amounted to 99.2%.

Consider “Sequencing grade trypsin (from UniProt P00761) (enzyme)”, for which the Sequence Coverage (%) by LC-MS/MS after trypsin digestion in [2] came out at 99.1%; in experiment [3], 89.2%; in experiment [4], 91.7%; in experiment [5] it was 98.6%; in [6], 91.9%; in experiment [7], 94.3%. Besides, the Sequence Coverage (%) by LC-MS/MS after trypsin digestion in [8] was determined as 84.2%; in experiment [9], 92.5%; in experiment [10] it was 98.9%; in experiment [11] it was 99.3%; in [12] it was 55.1%; in [13], 93.8%. Also, the Sequence Coverage (%) by LC-MS/MS after trypsin digestion in [14] was 91.4%.
